Source: US10919966B2, “Antibody to programmed death-ligand 1 (PD-L1) and use thereof” (Y-BIOLOGICS INC., dated 2021)

How the values were obtained:
PD-L1-hFc [1] = target: T1, PD-L1-hFc (human, UniProt Q9NZQ7); assay: SPR, ProteOn XPR36, PD-L1-hFc immobilised on GLC chip, antibody 30 nM to 0.123 nM
Description: (§1) A ProteOn XPR36 (BioRad) instrument was used. The GLC sensor chip (BioRad) was mounted on the instrument and washed with PBST buffer, and the carboxymethyldextran surface was activated with an EDC/sulfo-NHS mixed solution. PD-L1-hFc dissolved at a concentration of 5 ug/ml in a 10 mM sodium acetate buffer solution (pH 5.0) was injected and immobilized on the GLC sensor chip.
In order to deactivate the activated carboxyl groups that remain unreacted with the PD-L1 protein, 1 M ethanolamine was flowed and 10 mM glycine (pH 2.0) was injected in order to wash proteins that remain unbound to the sensor chip.

PD-L1-hFc [2] = target: T1, PD-L1-hFc; assay: SPR, ProteOn XPR36, human PD-L1 (PD-L1-hFc immobilised)
Description: as §1
In order to deactivate the activated carboxyl groups that remain unreacted with the PD-L1 protein, 1 M ethanolamine was flowed and 10 mM glycine (pH 2.0) was injected in order to wash proteins that remain unbound to the sensor chip. Then, sensogram data were collected during binding and dissociation over time while allowing the antibodies to flow at a flow rate of 30 µL/min (30 nM to 0.123 nM) for 10 min using PBST buffer.

cynomolgus PD-L1 protein = cynomolgus PD-L1 protein (cynomolgus, UniProt G7PSE7); assay: SPR, ProteOn XPR36, cynomolgus PD-L1 protein (construct not described)

T1 sequence (Q9NZQ7 other isoform, or with tags, fused parts or gaps): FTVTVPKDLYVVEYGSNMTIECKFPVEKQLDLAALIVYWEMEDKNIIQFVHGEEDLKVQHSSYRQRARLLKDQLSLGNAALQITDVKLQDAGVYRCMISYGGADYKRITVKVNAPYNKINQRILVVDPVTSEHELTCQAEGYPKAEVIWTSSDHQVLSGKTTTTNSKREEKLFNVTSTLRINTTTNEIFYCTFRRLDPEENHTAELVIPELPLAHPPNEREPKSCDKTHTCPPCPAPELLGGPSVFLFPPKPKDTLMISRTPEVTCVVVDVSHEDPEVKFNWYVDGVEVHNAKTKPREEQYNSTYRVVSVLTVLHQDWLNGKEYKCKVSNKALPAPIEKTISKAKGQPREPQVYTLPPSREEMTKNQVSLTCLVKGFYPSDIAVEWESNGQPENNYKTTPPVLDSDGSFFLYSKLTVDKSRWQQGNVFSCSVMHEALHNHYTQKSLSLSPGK

Kd (PD-L1-hFc [1]) | Kd (PD-L1-hFc [2]) | koff (PD-L1-hFc [2]) | kon (PD-L1-hFc [2]) | Kd (cynomolgus PD-L1 protein) | koff (cynomolgus PD-L1 protein) | Binder
45 pM |  |  |  |  |  | PDL1-16E12 (antibody, V domains shown) VH: QMQLVQSGAEVKKPGSSVKVSCKASGGTFSSYAISWVRQAPGQGLEWMGRIIPILGIANYAQKFQGRVTITADKSTSTAYMELSSLRSEDTAVYYCAKPRDGYNLVAFDIWGQGTMVTVSS VL: QLVLTQPPSVSGAPGQTVTISCTGSSSNIGAGYDVHWYQQLPGTAPKLLIYGNNNRPSGVPDRFSGSKSGALASLAITGLQAEDGADYHCQSYDNSLSAHAVFGTGTKVTVL
 | 1 pM | 1e-07 s⁻¹ | 310000 M⁻¹ s⁻¹ | 1 pM | 1e-07 s⁻¹ | PDL1-16E12 (LS/4F5) (antibody, V domains shown) VH: QMQLVQSGAEVKKPGSSVKVSCKASGGTFSSYAISWVRQAPGQGLEWMGRIIPILGIANYAQKFQGRVTITADKSTSTAYMELSSLRSEDTAVYYCAKPRDGYNLVAFDIWGQGTMVTVSS VL: QLVLTQPPSVSGAPGQRVTISCTGSSSNIGAGYDVHWYQQLPGAAPKLLIYGDINRPSGVPDRFSGSKSGISASLAITGLQAEDEADYYCQSYDSSLSGGVFGGGTKLTVL
